From PMC3858555

Biological target: CIN85 of MDCK cells (dog (endogenous in MDCK))
Assay: co-IP; whole cell lysates (RIPA), 500 μg; precipitated with anti-CIN85 antibody, blotted with anti-MUC1 (3C6, Ab5) or anti-Tac; washed with RIPA containing 0.5 M NaCl, 2% SDS; control unrelated IgG; intensity by Image J

- fold co-precipitation against the construct lacking the cytoplasmic tail (22TR-Tac): 1.9 fold
- fold co-precipitation against the construct lacking the extracellular domain (Tac-CT): 2.4 fold
Substance: full-length MUC1 containing 22 tandem repeats in the VNTR domain (natural protein)
